Consider two substances from patent US20030023032A1.

This experiment addresses sigma 54 (sigma^54) transcription factor from Vibrio harveyi, product of the rpoN gene (Vibrio harveyi). The experiment is described as follows: cell-based or functional assay.

Turning to “LuxO D47E ("locked" form mimicking activated phospho-LuxO), Vibrio harveyi (from UniProt P0C5S5 1-453)”, the % W.T. Lux (bioluminescence per cell at high cell density); strain JAF548, luxO D47E, wild type rpoN present (% of wild type) was determined as 0.002; the % W.T. Lux; strain BNL244, luxO D47E, rpoN::Cm^r (sigma^54 absent) (% of wild type) amounted to 77; the % W.T. Lux; strain BNL244, luxO D47E, rpoN::Cm^r, with Plac-rpoN in trans (sigma^54 restored) (% of wild type) was 1.4; the Siderophore units (chromazurol S assay); strain JAF548, luxO D47E, wild type rpoN present (siderophore units) was determined as 50. The Siderophore units; strain BNL244, luxO D47E, rpoN::Cm^r (sigma^54 absent) (siderophore units) worked out at 4 and the Siderophore units; strain BNL244, luxO D47E, rpoN::Cm^r, with Plac-rpoN in trans (sigma^54 restored) (siderophore units) is 25.
“phospho-LuxO (wild type LuxO, constitutively phosphorylated in luxN L166R strains), Vibrio harveyi (from UniProt P0C5S5 1-453)” came in with a % W.T. Lux; strain BNL248, luxN L166R, rpoN::Cm^r (sigma^54 absent) (% of wild type) of 55; a % W.T. Lux; strain BNL248, luxN L166R, rpoN::Cm^r, with Plac-rpoN in trans (sigma^54 restored) (% of wild type) of 1.1; a % W.T. Lux; strain JAF549, luxN L166R, wild type rpoN present (% of wild type) of 0.004.
